Assay results: the supplement of paper PMC9170038

Tested on: K4 kissing-loop RNA reporter
Assay: apparent KD of K4 kissing-loop reporter; higher = weaker reporter binding
Conditions: Eterna round: R107
Procedure: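 RNA-MaP round R107: designed RNA switches with theophylline, tryptophan, arginine or FMN aptamers are transcribed on-chip within common flanks. They are titrated with a labelled K4 kissing-loop RNA reporter in RNA-MaP buffer (100 mM Tris pH 7.5, 80 mM KCl, 4 mM MgCl2), without ligand or with the indicated ligand. Median apparent KD per design.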

[1] = input ligand: theophylline 20 uM
[2] = input ligand: tryptophan 2.4 mM
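Also: bound reporter read as fluorescence of individual clusters on recovered sequencing chips by microscopy, with normalized cluster intensities fitted with a binding model.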

| Sequence | apparent KD of K4 kissing-loop reporter (input ligand: FMN 200 uM) | apparent KD of K4 kissing-loop reporter (input ligand: arginine 13.2 mM) | apparent KD of K4 kissing-loop reporter (input ligand: none) | apparent KD of K4 kissing-loop reporter [1] | apparent KD of K4 kissing-loop reporter [2] |
| --- | --- | --- | --- | --- | --- |
| GGCCCGGGCGCGGCCGCCACUCCCUCGUACCGCAAGGUAUGAUACCGAGUGAUGUUCGGUUGGAGGAGGACCGGGCGCCCGGGCC [#2 Exclusion - Tryptophan B Attempt #5 (HarryS)] | 122 nM | 101 nM | 108 nM | 77.4 nM | 91.1 nM |
| GUCCUGAGUGAUGUUCGGGUCGUUCGGGAAGGAGCGCCCGCAAGGGCAGGUAGGUCGCCCGGAUCUCUCAGGUAACUGAGAGACC [#2 Same State - Arginine A Attempt #29 (HarryS)] | 563 nM | 303 nM | 448 nM | 554 nM | 383 nM |
| GGGCGUGGCGCGGCCGCCACUGCGCCUGGGUGCUCGCUGAGUGAUGUUCGUCGGCGGUUGGGUGGUAGGACCGGGUGCUGGUCGG [BDazzled - #11 SS Tryptophan B] | 640 nM | 407 nM | 629 nM | 517 nM | 563 nM |
| AUAAACUUGCAGUGAUGUUGCAAGUAAGACUAGGAUAUCAGGAAACUGAGAAGGAGUCAUCUCCUUCAAACAUCACUAUGAAGGA [[K1]-[K2]-[F1]-[F2]-[F]'-[K]'-[F]''_Design5] | 507 nM | 263 nM | 384 nM | 413 nM | 331 nM |
| AAUAAAAUCACGGCCGCCACUAAUGCUAGUAUUAGCAGUGAUGUUGCUAUGUAUAUUUUAUUUAAUAGGACCGGGUGAAUAUUUA [#23 K4 Tryptophan B Exclusion] | 332 nM | 294 nM | 346 nM | 308 nM | 224 nM |
| AGGGUAAGGCGUUAACAUGACACCUGGGAAGGAGCGCGGUACACCGCAGGUAGGUCGCCCAGUGAUGUUGGGUGUAUGUAUGAGU [KL-XArg-A21] | 170 nM | 120 nM | 139 nM | 154 nM | 132 nM |
| GGUAGUGCUAGCGAUACCAGUCAUAUCGCUCUGGAGUGAUGUUCCGGAACGUGCGGAGAAGACCCUUGGCAGCGCUUGACUGGAA [Exclusion Theophylline B GF6] | 758 nM | 539 nM | 574 nM | 538 nM | 736 nM |
| AGUGAUAUAUGAGGAUAUGGGUUUGUUAAUGAGUUAGUUUUAGUGUUGUUUGGUUAGUGAUGUUAUUUAGAAGGCGUGAGUGAUG [vkkjkjmullin] | 103 nM | 79.8 nM | 79.9 nM | 140 nM | 72.8 nM |
| AACUGUCAAGGACAACAUUACUGGAGUGAUACCAGCAUCGAAAGAUGCCCUUGGCAGCACUAACUUGCAGUGAUGUUGCAAGUAA [BrourdMod 6 - Jieux - Exclusion - Theophylline A] | 208 nM | 174 nM | 196 nM | 192 nM | 191 nM |
| UUUUAAUGCAGUGAUGUUGCAAAUAAAACAGAGGAUAUGCAUGGAAGCAGAAGGCUGAUAUGUCGUACUUCGACAUAUUAUAUUU [JR_SSFMNA_Sub012] | 89.2 nM | 125 nM | 91.4 nM | 121 nM | 81 nM |
| GUGAAGGAGCUGCAGUGAUGUUGCAGAGACUAGGAUAUCAGGAAACUGAGAAGGAGUCAACUCCUUCACCUAGACUGCAACAUAA [[F]''-[K1]-[K2]-[F1]-[F2]-[F2]'-[F1]'-[K]'_Design3] | 99.6 nM | 69.7 nM | 67.7 nM | 75.7 nM | 134 nM |
| GCCGUACGCAUGGAUACCAGCUAGACCGAGUGAUGUUCAGGUCUGAAUGCCGGUAUCAAGAGCCCUUGGCAGCCAUGCGUACGGC | 382 nM | 265 nM | 301 nM | 329 nM | 292 nM |
| AAAAUAAAAGGUCACCCAGUGAUGUUGGAAGGAGCGUGCGAAAGCACAGGUAGGUCGCCAACCUAAAAGUGACCAGGGAAACCCA [#SwitchBubble 7 #K4Early] | 594 nM | 253 nM | 171 nM | 183 nM | 276 nM |
| GGAGCAGGUGAAGGAUAUCCCGGGCCAGAGUGAUGUUCUGGAUCCCUUGCCGUGUCUAAACGGGUGGGAGAAGGUCACUGAUAAG [Erinxe] | 137 nM | 187 nM | 213 nM | 178 nM | 231 nM |
| UGUGUUGUAUGACGGUUUGUCACUUAGUAUUAGGAUAUAUAAACAAAUAGAAGGGAUGGCGGAGUGAUGUUCCGCCGGCCGCCAU [FMN A Exl V10] | 92.3 nM | 92.9 nM | 80.8 nM | 94 nM | 97.6 nM |
| CGCUGGGCGAGUGAUGUUCGCUCACGUGAUACCAGUGCCAUCCAACACCCUUGGCAGCACGCGGGCAGUGAUGUUGUCCUUGUAU [Exclusion Theophylline A GF6] | 130 nM | 117 nM | 127 nM | 109 nM | 119 nM |
| UGGAGGAAUCGACCUCGAAAGAGGAUGGAUACCAGAGAAGAAAUUCUCCCUUGGCAGCCAGUGAUGUUGGAACCUCCUAAAUAAA [#SwitchBubble 18 #K4Late] | 609 nM | 445 nM | 706 nM | 354 nM | 622 nM |
| UUUAUUAAGACGGCCGCCACUGAUUCAGAGUGAUGUUCUGAUAAAAUUUUAGAUAAUAAUAACAGCAGGACCGGGUCAAUUAUUA [JR_SSTryptoB_Sub014] | 211 nM | 211 nM | 238 nM | 219 nM | 208 nM |
| CCAUUCUUUUACGAUACCAGUUUAAUUUAUUUAUUCAUAACCCUUGCCGAGUGAUGUUCGGACCCUUGGCAGCGUUUGCGAGAGG [vvuvmullin] | 331 nM | 314 nM | 463 nM | 485 nM | 358 nM |
| UCUGGAGCAUAUGAUACCAGCAGUGAGAGACAGGAAGUAUAGUGAUGUUAUAUGAGAGAAUGCCCUUGGCAGCGUGUGCAGUGGC [SSTheophylB.P] | 104 nM | 96.5 nM | 65 nM | 94.9 nM | 59.7 nM |
| UUUUUAUUCAGUGAUGUUGAAUUUAUAACAGAGGAUAUGCAUAAAAGCAGAAGGCUGAAAUACUAUACUUUAAUAAAUUAUAUUU [JR_SSFMNA_Sub016] | 214 nM | 274 nM | 261 nM | 326 nM | 192 nM |
